This note sets out measurements from article PMC6168553 (Nature Communications, 2018).

Positions count from the first letter of the chain named. Names may count otherwise.

Data set [1] concerns the molecule itself. The data set can be described thus: cryo-EM structure; helical reconstruction of NOD2CARDS^s-RIP2CARD filaments, filament ends left out; 3.94 Å.
Data set [2] deals with the molecule itself. The data set can be described thus: negative-stain EM; amylose eluate (with co-purified NOD2CARDS^s) at 2.5 mg ml^−1, polymerization stimulated by proteases for 4 h at room temperature.
In data set [3] the target is T1, NOD2ΔLRR (residues 1-619), MBP tag cleaved (human, UniProt Q9HC29 1-619).
T1 construct: NOD2 (nucleotide oligomerization domain 2), human, CARDS and NOD without the LRR domain, residues 1-619; A less aggregated SEC fraction was used; the protein forms soluble aggregates; also called MBP-NOD2ΔLRR before cleavage; source: sf21 insect cells (baculovirus), purified (amylose resin, TEV cleavage, size exclusion chromatography); not shown: MBP, N-terminal, cleaved
Briefly: immuno-gold labelling with negative-stain EM; purified NOD2ΔLRR mixed with a 50-fold excess of MBP-RIP2CARD, polymerization induced by TEV; rabbit anti-NOD2 and gold-conjugated anti-rabbit. The note with it: both partners purified.

Data set [4] concerns the molecule itself. Briefly: negative-stain EM; void-volume fraction of size-exclusion chromatography after cleavage of the MBP tag by TEV. In general terms: In gel filtration, larger molecules generally elute earlier.

T1 sequence (Q9HC29 1-619, stated change not applied): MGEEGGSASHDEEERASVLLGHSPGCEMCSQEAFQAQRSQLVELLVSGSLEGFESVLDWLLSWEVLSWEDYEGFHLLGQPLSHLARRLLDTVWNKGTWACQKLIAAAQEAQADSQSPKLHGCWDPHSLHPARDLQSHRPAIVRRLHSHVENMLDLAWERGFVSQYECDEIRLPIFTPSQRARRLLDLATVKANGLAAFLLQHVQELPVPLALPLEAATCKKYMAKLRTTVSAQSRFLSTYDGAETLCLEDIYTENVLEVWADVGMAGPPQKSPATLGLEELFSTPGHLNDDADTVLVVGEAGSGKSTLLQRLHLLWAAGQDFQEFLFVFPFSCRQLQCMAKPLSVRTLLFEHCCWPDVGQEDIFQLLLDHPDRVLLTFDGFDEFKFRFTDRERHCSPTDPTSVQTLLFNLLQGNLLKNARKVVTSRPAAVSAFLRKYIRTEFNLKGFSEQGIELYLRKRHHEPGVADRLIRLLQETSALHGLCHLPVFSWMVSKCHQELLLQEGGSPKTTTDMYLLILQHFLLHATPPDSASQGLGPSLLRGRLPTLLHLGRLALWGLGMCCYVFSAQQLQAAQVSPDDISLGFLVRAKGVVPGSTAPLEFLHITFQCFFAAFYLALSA

B1: RIP2CARD (residues 431-540), wild type, HIS-MBP tag cleaved (domain or fragment, human, UniProt O43353 431-540, looked up)
chain: LQPGIAQQWIQSKREDIVNQMTEACLNQSLDALLSRDLIMKEDYELVSTKPTRTSKVRQLLDTTDIQGEEFAKVIVQKLKDNKQMGLQPYPEILVVSRSPSLNLLQNKSM
notes: RIP2 CARD domain, human, residues 431-540; The atomic model of the filament comprises residues P433 to Q518; also called RIP2CARD filament; NOD2CARDS^s-WT; source: E. coli Rosetta 2, purified (amylose resin, Superose6), HIS-MBP cleaved by P3C, Ni-NTA, dialysis; not shown: His, N-terminal, cleaved; MBP, N-terminal, cleaved
As to B1, in data set [1], the binding result is “binds”.

B2: RIP2CARD (431-540) T452A, HIS-MBP tag cleaved (domain or fragment, human, UniProt O43353 431-540, looked up)
chain: B1 chain with T22A
notes: RIP2 CARD domain, human, residues 431-540; source: E. coli Rosetta 2, co-purified with NOD2CARDS^s on amylose resin, tags cleaved by proteases; not shown: His, N-terminal, cleaved; MBP, N-terminal, cleaved
For the molecule B2, in data set [2], the binding result was “binds”.

B3: RIP2CARD (431-540) C455S, HIS-MBP tag cleaved (domain or fragment, human, UniProt O43353 431-540, looked up)
chain: B1 chain with C25S
notes: RIP2 CARD domain, human, residues 431-540; also called RIP2CARD-C455S; NOD2CARDS^s-C455S; source: E. coli Rosetta 2, co-purified with NOD2CARDS^s on amylose resin, tags cleaved by proteases; not shown: His, N-terminal, cleaved; MBP, N-terminal, cleaved
As for B3, in data set [2], the binding result is recorded as “binds”.

B4: RIP2CARD (431-540) C455A, HIS-MBP tag cleaved (domain or fragment, human, UniProt O43353 431-540, looked up)
chain: B1 chain with C25A
notes: as for B2
As to B4, in data set [2], the binding result is “binds”.

B5: RIP2CARD (431-540) E453A, HIS-MBP tag cleaved (domain or fragment, human, UniProt O43353 431-540, looked up)
chain: B1 chain with E23A
notes: as for B2
Consider B5, for which the binding result in data set [2] is on record as “binds”.

B6: RIP2CARD (431-540) T452K, HIS-MBP tag cleaved (domain or fragment, human, UniProt O43353 431-540, looked up)
chain: B1 chain with T22K
notes: RIP2 CARD domain, human, residues 431-540; also called RIP2CARD-T452K; NOD2CARDS^s-T452K; source: E. coli Rosetta 2, co-purified with NOD2CARDS^s on amylose resin, tags cleaved by proteases; not shown: His, N-terminal, cleaved; MBP, N-terminal, cleaved
Consider B6, for which, in data set [2], the binding result is “binds”.

B7: RIP2CARD (residues 435-540), MBP tag cleaved (domain or fragment, human, UniProt O43353 435-540, looked up)
chain: IAQQWIQSKREDIVNQMTEACLNQSLDALLSRDLIMKEDYELVSTKPTRTSKVRQLLDTTDIQGEEFAKVIVQKLKDNKQMGLQPYPEILVVSRSPSLNLLQNKSM
notes: RIP2 CARD domain, human, residues 435-540; Isotope-labelled for solid-state NMR; also called RIP2CARD VV; RIP2CARD filament; source: E. coli Rosetta 2 (BL21 star for NMR), purified (amylose resin), MBP cleaved by TEV; not shown: MBP, N-terminal, cleaved
Turning to B7, the binding result in data set [3] and in data set [4] was “binds” each time.
